B1: PaiASa (Staphylococcus aureus subsp. aureus USA300) (protein)
chain: MAGIIKEISEQNASELVELATRTFYDTFGSYYDDKDFDQFFKDNYTVEKFTQEINHVDSFHYFYQEDGANVGYIKMNINSAQTEEMGETYLEVQRIYFLKDFQGGGRGSQLIELAEKIAQEHNKHKIWLGVWEHNPRAQAFYKRHGFKVVGEHHFQTGDVTDTDLIMEKEL
B2: SpeG (Staphylococcus aureus subsp. aureus USA300) (protein)
chain: MKLRALEYSDLLFVHELNNEYSIMSYWFEEPYESLTELQHLFDKHLLDESERRFIVEDENQVVGIVELVEINYIHRNCEIQIIIKPEFSGKGYAKFAFEKAIIYAFNILNMHKIYLYVDADNKKAIHIYESQGFKTEGLLKEQFYTKGKYKDAYFMSLLKSEYIL

How the values were obtained:
[1] = substrate: NCCCNCCCCNCCCN; test: colorimetric DTNB SSAT assay; format: biochemical, Staphylococcus aureus; conditions: 1 mM AcCoA, pH 7.5, 37 °C, approximate value given in Methods
purified protein = substrate: NCCCNCCCCNCCCN; test: purified protein; conditions: 1 mM AcCoA, pH 7.5, 37 °C

Row | Protein | Km [1] | Km (purified protein; Michaelis-Menten fit) | K0.5 (purified protein; allosteric sigmoidal fit)
1 | B1 | 2000 µM | – | –
2 | B2 | – | 1312 ± 348.1 µM | 757.5 ± 63.35 µM
